Assay results reported in the supplement of paper PMC5998384.

How the values were obtained:
HeLa Kyoto [1] = test: solubility in G1/S (NP-40 vs SDS abundance) (log2 ratio); higher = more soluble; conditions: cell cycle stage: G1/S
HeLa Kyoto [2] = test: melting temperature (median over replicates), in situ; higher = more thermally stable
HeLa Kyoto [3] = test: solubility change mitosis vs G1/S (difference of NP-40 vs SDS log2 ratios) (log2 ratio difference); higher = more soluble in mitosis
HeLa Kyoto [4] = test: thermal stability score vs G1/S (z-score of summed log2 fold changes over temperatures); higher = more thermally stable than in G1/S
[5] = cell cycle stage: early G1 (4.5 h after nocodazole release)
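For melting temperature (median over replicates), in situ in this document: HeLa Kyoto cells synchronized by double thymidine or nocodazole block, proteins quantified by TMT10plex mass spectrometry, three independent biological replicates.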
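For solubility change mitosis vs G1/S (difference of NP-40 vs SDS log2 ratios) in this document: synchronized HeLa Kyoto cells (double thymidine block for G1/S, nocodazole release for mitosis), protein amounts in NP-40 versus SDS lysates quantified by mass spectrometry, three biological replicates.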
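For solubility in G1/S (NP-40 vs SDS abundance) in this document: HeLa Kyoto cells arrested at G1/S by double thymidine block, proteins quantified by TMT10plex mass spectrometry in mild NP-40 versus SDS extracts, three biological replicates.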
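For thermal stability score vs G1/S (z-score of summed log2 fold changes over temperatures) in this document: synchronized HeLa Kyoto cells, proteins quantified by TMT10plex mass spectrometry, three biological replicates, mitosis taken 0.5 h after nocodazole release, G1/S directly after double thymidine block.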

Sequence | solubility in G1/S (log2) (HeLa Kyoto [1]) | melting temperature (HeLa Kyoto [2]; cell cycle stage: G1/S) | melting temperature (HeLa Kyoto [2]; cell cycle stage: mitosis) | solubility change mitosis (log2) (HeLa Kyoto [3]) | thermal stability score (HeLa Kyoto [4]; [5]) | thermal stability score (HeLa Kyoto [4]; cell cycle stage: mitosis)
MSRPSSVSPRQPAPGGGGGGGPSPCGPGGGGRAKGLKDIRIDEEVKIAVNIALERFRYGDQREMEFPSSLTSTERAFIHRLSQSLGLVSKSKGKGANRYLTVKKKDGSETAHAMMTCNLTHNTKHAVRSLIQRFPVTNKERTELLPKTERGNVFAVEAENREMSKTSGRLNNGIPQIPVKRGESEFDSFRQSLPVFEKQEEIVKIIKENKVVLIVGETGSGKTTQIPQFLLDDCFKNGIPCRIFCTQPRRLAAIAVAERVAAERRERIGQTIGYQIRLESRVSPKTLLTFCTNGVLLRTLMAGDSTLSTVTHVIVDEVHERDRFSDFLLTKLRDLLQKHPTLKLILSSAALDVNLFIRYFGSCPVIYIQGRPFEVKEMFLEDILRTTGYTNKEMLKYKKEKQQEEKQQTTLTEWYSAQENSFKPESQRQRTVLNVTDEYDLLDDGGDAVFSQLTEKDVNCLEPWLIKEMDACLSDIWLHKDIDAFAQVFHLILTENVSVDYRHSETSATALMVAAGRGFASQVEQLISMGANVHSKASNGWMALDWAKHFGQTEIVDLLESYSATLEFGNLDESSLVQTNGSDLSAEDRELLKAYHHSFDDEKVDLDLIMHLLYNICHSCDAGAVLIFLPGYDEIVGLRDRILFDDKRFADSTHRYQVFMLHSNMQTSDQKKVLKNPPAGVRKIILSTNIAETSITVNDVVFVIDSGKVKEKSFDALNFVTMLKMVWISKASAIQRKGRAGRCRPGICFRLFSRLRFQNMLEFQTPELLRMPLQELCLHTKLLAPVNCPIADFLMKAPEPPPALIVRNAVQMLKTIDAMDTWEDLTELGYHLADLPVEPHLGKMVLCAVVLKCLDPILTIACTLAYRDPFVLPTQASQKRAAMLCRKRFTAGAFSDHMALLRAFQAWQKARSDGWERAFCEKNFLSQATMEIIIGMRTQLLGQLRASGFVRARGGGDIRDVNTNSENWAVVKAALVAGMYPNLVHVDRENLVLTGPKEKKVRFHPASVLSQPQYKKIPPANGQAAAIKALPTDWLIYDEMTRAHRIANIRCCSAVTPVTILVFCGPARLASNALQEPSSFRVDGIPNDSSDSEMEDKTTANLAALKLDEWLHFTLEPEAASLLLQLRQKWHSLFLRRMRAPSKPWSQVDEATIRAIIAVLSTEEQSAGLQQPSGIGQRPRPMSSEELPLASSWRSNNSRKSSADTEFSDECTTAERVLMKSPSPALHPPQKYKDRGILHPKRGTEDRSDQSSLKSTDSSSYPSPCASPSPPSSGKGSKSPSPRPNMPVRYFIMKSSNLRNLEISQQKGIWSTTPSNERKLNRAFWESSIVYLVFSVQGSGHFQGFSRMSSEIGREKSQDWGSAGLGGVFKVEWIRKESLPFQFAHHLLNPWNDNKKVQISRDGQELEPLVGEQLLQLWERLPLGEKNTTD [YTHDC2] | -0.57 | 50.2 °C | 50 °C | 0.163 | -0.356 | 0.243
MSRRRHSDENDGGQPHKRRKTSDANETEDHLESLICKVGEKSACSLESNLEGLAGVLEADLPNYKSKILRLLCTVARLLPEKLTIYTTLVGLLNARNYNFGGEFVEAMIRQLKESLKANNYNEAVYLVRFLSDLVNCHVIAAPSMVAMFENFVSVTQEEDVPQVRRDWYVYAFLSSLPWVGKELYEKKDAEMDRIFANTESYLKRRQKTHVPMLQVWTADKPHPQEEYLDCLWAQIQKLKKDRWQERHILRPYLAFDSILCEALQHNLPPFTPPPHTEDSVYPMPRVIFRMFDYTDDPEGPVMPGSHSVERFVIEENLHCIIKSHWKERKTCAAQLVSYPGKNKIPLNYHIVEVIFAELFQLPAPPHIDVMYTTLLIELCKLQPGSLPQVLAQATEMLYMRLDTMNTTCVDRFINWFSHHLSNFQFRWSWEDWSDCLSQDPESPKPKFVREVLEKCMRLSYHQRILDIVPPTFSALCPANPTCIYKYGDESSNSLPGHSVALCLAVAFKSKATNDEIFSILKDVPNPNQDDDDDEGFSFNPLKIEVFVQTLLHLAAKSFSHSFSALAKFHEVFKTLAESDEGKLHVLRVMFEVWRNHPQMIAVLVDKMIRTQIVDCAAVANWIFSSELSRDFTRLFVWEILHSTIRKMNKHVLKIQKELEEAKEKLARQHKRRSDDDDRSSDRKDGVLEEQIERLQEKVESAQSEQKNLFLVIFQRFIMILTEHLVRCETDGTSVLTPWYKNCIERLQQIFLQHHQIIQQYMVTLENLLFTAELDPHILAVFQQFCALQA [NCBP1] | -0.297 | 50 °C | 50.4 °C | -0.144 | 0.234 | 0.31
MSRYLRPPNTSLFVRNVADDTRSEDLRREFGRYGPIVDVYVPLDFYTRRPRGFAYVQFEDVRDAEDALHNLDRKWICGRQIEIQFAQGDRKTPNQMKAKEGRNVYSSSRYDDYDRYRRSRSRSYERRRSRSRSFDYNYRRSYSPRNSRPTGRPRRSRSHSDNDRFKHRNRSFSRSKSNSRSRSKSQPKKEMKAKSRSRSASHTKTRGTSKTDSKTHYKSGSRYEKESRKKEPPRSKSQSRSQSRSRSKSRSRSWTSPKSSGH [SRSF10] | -0.696 | 49.7 °C | 50.2 °C | 0.534 | 0.817 | -0.653
MSSAPRSPTPRPRRMKKDESFLGKLGGTLARKRRAREVSDLQEEGKNAINSPMSPALVDVHPEDTQLEENEERTMIDPTSKEDPKFKELVKVLLDWINDVLVEERIIVKQLEEDLYDGQVLQKLLEKLAGCKLNVAEVTQSEIGQKQKLQTVLEAVHDLLRPRGWALRWSVDSIHGKNLVAILHLLVSLAMHFRAPIRLPEHVTVQVVVVRKREGLLHSSHISEELTTTTEMMMGRFERDAFDTLFDHAPDKLSVVKKSLITFVNKHLNKLNLEVTELETQFADGVYLVLLMGLLEDYFVPLHHFYLTPESFDQKVHNVSFAFELMLDGGLKKPKARPEDVVNLDLKSTLRVLYNLFTKYKNVE [PARVB] | 0.0443 |  | 50.4 °C | -0.137 | 0.418 | 0.496
MSSIGTGYDLSASTFSPDGRVFQVEYAMKAVENSSTAIGIRCKDGVVFGVEKLVLSKLYEEGSNKRLFNVDRHVGMAVAGLLADARSLADIAREEASNFRSNFGYNIPLKHLADRVAMYVHAYTLYSAVRPFGCSFMLGSYSVNDGAQLYMIDPSGVSYGYWGCAIGKARQAAKTEIEKLQMKEMTCRDIVKEVAKIIYIVHDEVKDKAFELELSWVGELTNGRHEIVPKDIREEAEKYAKESLKEEDESDDDNM [PSMA3] | 0.204 | 60.7 °C | 56.7 °C | -0.0697 | -2.57 | -3.19
MSSLHKSRIADFQDVLKEPSIALEKLRELSFSGIPCEGGLRCLCWKILLNYLPLERASWTSILAKQRELYAQFLREMIIQPGIAKANMGVSREDVTFEDHPLNPNPDSRWNTYFKDNEVLLQIDKDVRRLCPDISFFQRATDYPCLLILDPQNEFETLRKRVEQTTLKSQTVARNRSGVTNMSSPHKNSVPSSLNEYEVLPNGCEAHWEVVERILFIYAKLNPGIAYVQGMNEIVGPLYYTFATDPNSEWKEHAEADTFFCFTNLMAEIRDNFIKSLDDSQCGITYKMEKVYSTLKDKDVELYLKLQEQNIKPQFFAFRWLTLLLSQEFLLPDVIRIWDSLFADDNRFDFLLLVCCAMLMLIREQLLEGDFTVNMRLLQDYPITDVCQILQKAKELQDSK [TBC1D13] | 0.0698 | 53.2 °C | 54.1 °C | -0.145 | -0.565 | 0.385
MSSLSGKVQTVLGLVEPSKLGRTLTHEHLAMTFDCCYCPPPPCQEAISKEPIVMKNLYWIQKNAYSHKENLQLNQETEAIKEELLYFKANGGGALVENTTTGISRDTQTLKRLAEETGVHIISGAGFYVDATHSSETRAMSVEQLTDVLMNEILHGADGTSIKCGIIGEIGCSWPLTESERKVLQATAHAQAQLGCPVIIHPGRSSRAPFQIIRILQEAGADISKTVMSHLDRTILDKKELLEFAQLGCYLEYDLFGTELLHYQLGPDIDMPDDNKRIRRVRLLVEEGCEDRILVAHDIHTKTRLMKYGGHGYSHILTNVVPKMLLRGITENVLDKILIENPKQWLTFK [PTER] | 0.0448 | 56.8 °C | 57 °C | -0.0354 | -2.92 | -0.753
MSSPQAPEDGQGCGDRGDPPGDLRSVLVTTVLNLEPLDEDLFRGRHYWVPAKRLFGGQIVGQALVAAAKSVSEDVHVHSLHCYFVRAGDPKLPVLYQVERTRTGSSFSVRSVKAVQHGKPIFICQASFQQAQPSPMQHQFSMPTVPPPEELLDCETLIDQYLRDPNLQKRYPLALNRIAAQEVPIEIKPVNPSPLSQLQRMEPKQMFWVRARGYIGEGDMKMHCCVAAYISDYAFLGTALLPHQWQHKVHFMVSLDHSMWFHAPFRADHWMLYECESPWAGGSRGLVHGRLWRQDGVLAVTCAQEGVIRVKPQVSESKL [ACOT8] | -0.0523 | 51.9 °C | 53.8 °C | -0.588 | 0.114 | -0.515
MSSRIARALALVVTLLHLTRLALSTCPAACHCPLEAPKCAPGVGLVRDGCGCCKVCAKQLNEDCSKTQPCDHTKGLECNFGASSTALKGICRAQSEGRPCEYNSRIYQNGESFQPNCKHQCTCIDGAVGCIPLCPQELSLPNLGCPNPRLVKVTGQCCEEWVCDEDSIKDPMEDQDGLLGKELGFDASEVELTRNNELIAVGKGSSLKRLPVFGMEPRILYNPLQGQKCIVQTTSWSQCSKTCGTGISTRVTNDNPECRLVKETRICEVRPCGQPVYSSLKKGKKCSKTKKSPEPVRFTYAGCLSVKKYRPKYCGSCVDGRCCTPQLTRTVKMRFRCEDGETFSKNVMMIQSCKCNYNCPHANEAAFPFYRLFNDIHKFRD [CYR61] | -0.183 | 52.8 °C | 54.1 °C | -0.133 | 5.63 | 3.33
MSSSVRRKGKPGKGGGKGSSRGGRGGRSHASKSHGSGGGGGGGGGGGGGNRKASSRIWDDGDDFCIFSESRRPSRPSNSNISKGESRPKWKPKAKVPLQTLHMTSENQEKVKALLRDLQEQDADAGSERGLSGEEEDDEPDCCNDERYWPAGQEPSLVPDLDPLEYAGLASVEPYVPEFTVSPFAVQKLSRYGFNTERCQAVLRMCDGDVGASLEHLLTQCFSETFGERMKISEAVNQISLDECMEQRQEEAFALKSICGEKFIERIQNRVWTIGLELEYLTSRFRKSKPKESTKNVQENSLEICKFYLKGNCKFGSKCRFKHEVPPNQIVGRIERSVDDSHLNAIEDASFLYELEIRFSKDHKYPYQAPLVAFYSTNENLPLACRLHISEFLYDKALTFAETSEPVVYSLITLLEEESEIVKLLTNTHHKYSDPPVNFLPVPSRTRINNPACHKTVIPNNSFVSNQIPEVEKASESEESDEDDGPAPVIVENESYVNLKKKISKRYDWQAKSVHAENGKICKQFRMKQASRQFQSILQERQSLPAWEERETILNLLRKHQVVVISGMTGCGKTTQIPQFILDDSLNGPPEKVANIICTQPRRISAISVAERVAKERAERVGLTVGYQIRLESVKSSATRLLYCTTGVLLRRLEGDTALQGVSHIIVDEVHERTEESDFLLLVLKDIVSQRPGLQVILMSATLNAELFSDYFNSCPVITIPGRTFPVDQFFLEDAIAVTRYVLQDGSPYMRSMKQISKEKLKARRNRTAFEEVEEDLRLSLHLQDQDSVKDAVPDQQLDFKQLLARYKGVSKSVIKTMSIMDFEKVNLELIEALLEWIVDGKHSYPPGAILVFLPGLAEIKMLYEQLQSNSLFNNRRSNRCVIHPLHSSLSSEEQQAVFVKPPAGVTKIIISTNIAETSITIDDVVYVIDSGKMKEKRYDASKGMESLEDTFVSQANALQRKGRAGRVASGVCFHLFTSHHYNHQLLKQQLPEIQRVPLEQLCLRIKILEMFSAHNLQSVFSRLIEPPHTDSLRASKIRLRDLGALTPDERLTPLGYHLASLPVDVRIGKLMLFGSIFRCLDPALTIAASLAFKSPFVSPWDKKEEANQKKLEFAFANSDYLALLQAYKGWQLSTKEGVRASYNYCRQNFLSGRVLQEMASLKRQFTELLSDIGFAREGLRAREIEKRAQGGDGVLDATGEEANSNAENPKLISAMLCAALYPNVVQVKSPEGKFQKTSTGAVRMQPKSAELKFVTKNDGYVHIHPSSVNYQVRHFDSPYLLYHEKIKTSRVFIRDCSMVSVYPLVLFGGGQVNVQLQRGEFVVSLDDGWIRFVAASHQVAELVKELRCELDQLLQDKIKNPSIDLCTCPRGSRIISTIVKLVTTQ [DHX57] | -0.884 | 53 °C | 51.9 °C | 0.223 | -0.0848 | -0.271
